This assay addresses mNG-BCR-ABL (biotinylated Avitag-linker-mNeon Green-linker-p210 BCR-ABL, full length) (human) (UniProt P00519). Put plainly: single-molecule TIRF pull-down.

The values that follow come from article doi:10.1101/2024.10.02.616342.

By stoichiometry N is commonly meant a count of units in the complex or per binding partner.

Take “mNG-BCR-ABL (biotinylated Avitag-linker-mNeon Green-linker-p210 BCR-ABL, full length) (from UniProt P00519-1 28-1130)”: the percent dimeric turned out to be 55%, the percent monomeric is 40%, the percent tetramer came to 5% and the stoichiometry N turned out to be 2.
